# Source: article PMC8776730 (Nature Communications, 2022)
# Test: Secondary structure proportions from CD spectra
# Type: physicochemical
# Settings: calculated by Reed's Reference based on CD spectra; DI water
# Text: To further evaluate the assembled structures, the corresponding circular dichroism (CD), Fourier transform infrared (FTIR) spectroscopy, and wide-angle X-ray scattering (WAXS) spectroscopy were applied. […] The FITR spectra of M1 and M3 in Fig. 3b observed the intermolecular interactions. The peaks at 1629 cm^−1, 1675 cm^−1, and 1698 cm^–1 of M3 indicated anti-parallel β-sheet structure (represent by green arrow heads), peaks at 1648 cm^−1 and 1663 cm^−1 indicated parallel beta sheet structure (represent by blue arrow heads), the existence of 1654 cm^−1 indicate α-Helix structure in M1 which verified the results deduced by CD in Fig. 3a[29],[30]. […] As a homologous sequence with amyloid β-protein (Aβ), the self-assembly motif with peptide sequence of KLVFFGCG had similar aggregation kinetics to (Aβ)42 peptide, which occurred via dynamic growth from oligomers to amyloid fibrils. The aggregation started from the freshly isolated monomers of R-M1, and precipitates were separated in 1 min and 1 h, respectively. […] After analyzed the CD spectra of M1, M3, and R-M1 (Fig. 3e), it can be clearly seen that the main secondary conformation of M1 was Random, the M3 was hybrid of Helix and Beta, and the R-M1 was Beta (Supplementary Table 1). All the results confirmed the conclusion from FTIR spectra. […] The dynamic growth procedure was like the 8-anilino-1-naphthalenesulfonic acid (ANS) stained curve (Supplementary Fig. 12). As known, ANS was sensitive to hydrophobic interaction. When R-M1 were in the initial oligomer, the fluorescence intensity of ANS increased due to the enhanced hydrophobicity. When the molecules were elongated and stacked in higher ordered nanofibrils, the blue shift of ANS in the β-sheet structures reduced the fluorescence. The molecular packing mode of well-ordered fibrils of R-M1 in Fig. 3g observed a weak reflection at 4.9 Å as laminates space and a strong broad reflection at 10.3 Å as sheet space, which was illustrated in the inserted figure. The fibril morphology was characterized by transmission electron microscopy (TEM) imaging (Fig. 3f). The statistical calculation of the fiber diameter in TEM images was 5.0 ± 0.4 nm (Supplementary Fig. 13), which was corresponded to the theoretical calculated two molecules length of R-M1. We assumed that the nanofibers were assembled by twisted R-M1 molecules centered on self-assembly motif.
# The secondary structures of M1, M3 and R-M1 were verified by CD spectroscopy (JASCO Corporation, JC-1500) at room temperature with a cell path length of 1 cm. M1, […] and R-M1 were diluted to 100 μM with deionized water at 25 °C and allowed to stand for 12 h for complete assembly. Detail parameter setting were CD scale:200 mdeg/1.0Dod, measure range: 260~190 nm, scanning speed: 500 nm/min, bandwidth: 1.00 nm, and data pitch: 0.5 nm. All spectra were the average of three measurements.
# Supplementary Table 1∣ Secondary structure proportions ofM1, M3 and R-M1 calculated by Reed’s Reference based on […]
Substance,Secondary structure proportion: Beta [%],Secondary structure proportion: Helix [%],Secondary structure proportion: Random [%],Secondary structure proportion: Turn [%]
"mPEG-GPAKLVFFGCGRGD [M3, the non-labeling molecule of M1 (no IR783)]",38.7,45,16.3,0
mPEG-GPAKLVFFGC(IR783)GRGD [M1],32.2,0,66.1,1.7
